Results reported in the RNAGym collection of RNA variant scans (doi:10.1093/molbev/msab373).

B1: Azoarcus group I ribozyme (parent)
chain: GUGCCUUGCGCCGGGAAACCACGCAAGGGAUGGUGUCAAAUUCGGCGAAACCUAAGCGCCCGCCCGGGCGUAUGGCAACGCCGAGCCAAGCUUCGGCGCCUGCGCCGAUGAAGGUGUAGAGACUAGACGGCACCCACCUAAGGCAAACGCUAUGGUGAAGGCAUAGUCCAGGGAGUGGCGAAAGUCACACAAACCGG

Variants of: B1
Assay: reverse-splicing fitness (ratio to wild type); higher = more active; in vitro selection; Mg2+ level not given
Summary of the method: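 An in vitro group I ribozyme library with randomized positions was T7-transcribed and gel-purified. In triplicate, 10 pmol RNA in EPPS pH 7.5 was reacted with 50 pmoles of a 30-nt RNA substrate for 1 h at 37 °C across several added MgCl2 levels (1–48 mM), then stopped with EDTA. Products were reverse transcribed from a substrate-complementary primer, PCR-amplified and sequenced (HiSeq 4000). Fitness is a variant's read proportion after selection over that before, normalised to wild type.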

Variant | reverse-splicing fitness
C82U A111C A120C A145C C150A U176C | 0.0116
C82U A111C A120C A145C C150A U176A | 0.00991
C82U A111C A120C A145C C150A U176G | 0.00522
C82U A111C A120C A145C C169A | 0.00667
C82U A111C A120C A145C C169U | 0.0105
C82U A111C A120C A145C C169G | 0.00865
C82U A111C A120C A145C C150U C169U U176C | 0.0122
C82U A111C A120C A145C C150U C169U U176G | 0.0068
C82U A111C A120C A145C C150U C169U U176A | 0.0145
C82U A111C A120C A145G C150A C169A | 0.00917
C82U A111C A120C A145G C150A C169U | 0.0103
C82U A111C A120C A145G C150A C169G | 0.00891
C82U A111C A120C A145U C169A U176G | 0.00532
C82U A111C A120C A145U C169A U176A | 0.0107
C82U A111C A120C A145U C169A U176C | 0.0103
C82U A111C A120C A145U C150G | 0.00723
C82U A111C A120C A145U C150A | 0.0082
C82U A111C A120C A145U C150U | 0.0199
C82G C150U C169A U176A | 0.0176
C82G C150U C169A U176C | 0.0132
C82G C150U C169A U176G | 0.00526
C82G A145U C169A U176A | 0.00756
C82G A145U C169A U176C | 0.00844
C82G A145U C169A U176G | 0.00461

Variant | reverse-splicing fitness
C82U | 0.643
C82U A111C A120C A145G C150U C169G | 0.00807
C82U A111C A120C A145G C150U C169A | 0.00905
C82U A111C A120C A145G C150U C169U | 0.012
C82U A111C A120C C150A U176C | 0.022
C82U A111C A120C C150A U176A | 0.0109
C82U A111C A120C C150A U176G | 0.00688
C82U A111C A120C C150G U176C | 0.00787
C82U A111C A120C C150G U176G | 0.00336
C82U A111C A120C C150G U176A | 0.00528
C82U A111C A120C A145C C150U C169A U176C | 0.00703
C82U A111C A120C A145C C150U C169A U176G | 0.00658
C82U A111C A120C A145C C150U C169A U176A | 0.012
C82G A145U C169U U176A | 0.0116
C82G A145U C169U U176G | 0.00368
C82G A145U C169U U176C | 0.0136
C82G A145U C150U U176G | 0.0935
C82U A111C A120C A145C C150A C169A U176C | 0.00754
C82U A111C A120C A145C C150A C169A U176A | 0.0113
C82U A111C A120C A145C C150A C169A U176G | 0.00679
C82U A111C A120C A145U C150G C169A U176G | 0.00632
C82U A111C A120C A145U C150G C169A U176C | 0.00938
C82U A111C A120C A145U C150G C169A U176A | 0.00888
C82G A145U U176A | 0.395

Variant | reverse-splicing fitness
C82G A145U U176G | 0.175
C82G A145U U176C | 0.405
C82U A111C A120C A145U C169U | 0.0103
C82U A111C A120C A145U C169G | 0.00753
C82U A111C A120C A145U C169A | 0.00732
C82U A111C A120C C150U C169G | 0.0078
C82U A111C A120C C150U C169U | 0.0109
C82U A111C A120C C150U C169A | 0.00816
C82U A111C A120C C169U U176C | 0.0145
C82U A111C A120C C169U U176A | 0.018
C82U A111C A120C C169U U176G | 0.00583
C82G C150U C169G U176A | 0.0154
C82G C150U C169G U176G | 0.00501
C82G C150U C169G U176C | 0.0199
C82U A111C A120C A145U C150U C169U U176C | 0.0161
C82U A111C A120C A145U C150U C169U U176G | 0.00597
C82U A111C A120C A145U C150U C169U U176A | 0.0142
C82U A111C A120C A145U U176G | 0.00547
C82U A111C A120C A145U U176A | 0.0118
C82U A111C A120C A145U U176C | 0.0181
C82G A145U C169U | 0.0147
C82G A145U C169A | 0.00844
C82G A145U C169G | 0.0104
C82U A111C A120C A145G C169U U176G | 0.00573

Variant | reverse-splicing fitness
C82U A111C A120C A145G C169U U176C | 0.0159
C82U A111C A120C A145G C169U U176A | 0.0159
C82U A111C A120C A145C C150G C169A U176A | 0.00661
C82U A111C A120C A145C C150G C169A U176G | 0.00633
C82U A111C A120C A145C C150G C169A U176C | 0.00704
C82U A111C A120C A145U C150G C169G | 0.00628
C82U A111C A120C A145U C150G C169U | 0.00844
C82U A111C A120C A145U C150G C169A | 0.00863
C82G C150A C169G | 0.00937
C82G C150A C169U | 0.0101
C82G C150A C169A | 0.00956
C82U A111C A120C A145C U176G | 0.00562
C82U A111C A120C A145C U176A | 0.00981
C82U A111C A120C A145C U176C | 0.0155
C82U A111C A120C A145C C150A C169G | 0.00647
C82U A111C A120C A145C C150A C169A | 0.00737
C82U A111C A120C A145C C150A C169U | 0.00906
C82U A111C A120C A145U C150G C169U U176A | 0.00839
C82U A111C A120C A145U C150G C169U U176C | 0.0132
C82U A111C A120C A145U C150G C169U U176G | 0.00581
C82U A111C A120C A145G C150G C169A U176A | 0.0111
C82U A111C A120C A145G C150G C169A U176G | 0.00708
C82U A111C A120C A145G C150G C169A U176C | 0.0116
C82U A111C A120C A145U C150A C169A U176G | 0.00614

Variant | reverse-splicing fitness
C82U A111C A120C A145U C150A C169A U176C | 0.00844
C82U A111C A120C A145U C150A C169A U176A | 0.0117
C82U A111C A120C A145C C169U U176C | 0.0147
C82U A111C A120C A145C C169U U176A | 0.0162
C82U A111C A120C A145C C169U U176G | 0.00426
C82G C150G | 0.0318
C82G C150A | 0.0416
C82G C150U | 0.252
C82U A111C A120C A145G C150A C169G U176G | 0.00635
C82U A111C A120C A145G C150A C169G U176A | 0.015
C82U A111C A120C A145G C150A C169G U176C | 0.0245
C82U A111C A120C A145G C150U C169G U176C | 0.0151
C82U A111C A120C A145G C150U C169G U176G | 0.00547
C82U A111C A120C A145G C150U C169G U176A | 0.0115
C82U A111C A120C C150G C169G U176G | 0.00547
C82U A111C A120C C150G C169G U176C | 0.0068
C82U A111C A120C C150G C169G U176A | 0.00777
C82G C150U U176G | 0.0728
C82G C150U U176C | 0.206
C82G C150U U176A | 0.181
C82U A111C A120C C150A C169G U176A | 0.0161
C82U A111C A120C C150A C169G U176G | 0.00704
C82U A111C A120C C150A C169G U176C | 0.0184
C82G C150A C169G U176A | 0.0179

Variant | reverse-splicing fitness
C82G C150A C169G U176C | 0.0214
C82G C150A C169G U176G | 0.00539
C82U A111C A120C | 0.0271
C82G C169A | 0.00968
C82G C169U | 0.017
C82G C169G | 0.0111
C82U A111C A120C A145C C150G U176C | 0.00717
C82U A111C A120C A145C C150G U176A | 0.00512
C82U A111C A120C A145C C150G U176G | 0.00262
C82G C150U C169U U176C | 0.0159
C82G C150U C169U U176A | 0.0142
C82G C150U C169U U176G | 0.00459
C82U A111C A120C A145U | 0.028
C82U A111C A120C A145G | 0.0265
C82U A111C A120C A145C | 0.0222
C82U A111C A120C A145U C169G U176A | 0.013
C82U A111C A120C A145U C169G U176G | 0.00515
C82U A111C A120C A145U C169G U176C | 0.0132
C82U A111C A120C A145C C150U C169U | 0.0108
C82U A111C A120C A145C C150U C169G | 0.00644
C82U A111C A120C A145C C150U C169A | 0.00742
C82G C150G C169A U176C | 0.00997
C82G C150G C169A U176G | 0.00752
C82G C150G C169A U176A | 0.0112

Variant | reverse-splicing fitness
C82U A111C A120C C150U C169G U176G | 0.00553
C82U A111C A120C C150U C169G U176A | 0.0121
C82U A111C A120C C150U C169G U176C | 0.0153
C82U A111C A120C A145C C150A C169G U176C | 0.0151
C82U A111C A120C A145C C150A C169G U176G | 0.00588
C82U A111C A120C A145C C150A C169G U176A | 0.0253
C82G U176A | 0.364
C82G U176G | 0.14
C82G U176C | 0.352
C82G C150A U176C | 0.0447
C82G C150A U176A | 0.0422
C82G C150A U176G | 0.0188
C82U A111C A120C A145G C150G U176G | 0.00622
C82U A111C A120C A145G C150G U176A | 0.00676
C82U A111C A120C A145G C150G U176C | 0.00988
C82G A145U C169G U176A | 0.00948
C82G A145U C169G U176G | 0.00439
C82G A145U C169G U176C | 0.0115
C82G C150G U176G | 0.00797
C82G C150G U176A | 0.0255
C82G C150G U176C | 0.0287
C82U A111C A120C A145G C150U C169A U176G | 0.00622
C82U A111C A120C A145G C150U C169A U176A | 0.0123
